Test [1] concerns the target T1, soluble DRB1*0401 molecules (DR4) (Homo sapiens, UniProt P01903+P01911, A100K/A169T/F76Y/I96L/K127E/L162R/M171V/N62H/P40V/Q125Y/R42H/S133A/S149N/S66Y/V115G/V209L/W38E).
T1 construct: Soluble HLA class I A*0201 and HLA class II DRA1*0101/DRB1*0101/Ii, DRA1*0101/DRB1*0401/Ii and DRA1*0101/DRB1*0404/Ii molecules were expressed in SC-2 cells; made in house; host or cells: SC-2 cells
Type of test: binding. The arrangement: key to Binding to DRB1 *0401: −: no binding/T cell response; +/−: weak binding/T cell response; +: intermediate binding/T cell response; ++: strong binding/T cell response.

The next test addresses DRB1*0701 (Homo sapiens, UniProt P01903+P01911, A100R/A102G/A103Q/D57E/D86V/E43K/F76Y/K127E/L162R/M171V/P40G/Q125H/Q99D/R33Q/R42Y/R54Q/S133A/S66F/T210M/V115G/Y107V/Y59L/Y89S). Description: Peptide-competition assay with biotinylated CLIP peptide (ELISA). Details: key: −: no binding/T cell response; +/−: weak binding/T cell response; +: intermediate binding/T cell response; ++: strong binding/T cell response. In kind it is binding. As to the method:
(§1) The binding affinities to DRB1*0701 and DRB1*1101 were tested by a peptide-competition assay (Reay et al., 1992). Briefly, binding of the biotinylated CLIP peptide (reference peptide) has been used for monitoring of HLA:peptide complex formation. […] In the case of lower affinity peptides they should be added in excess to the reference peptide to compete for occupancy of HLA binding grove. […] Alternatively, comparing of the amount of reference peptide bound to HLA molecules in the presence or absence of competitor peptide one can determine the binding activity of the peptide of interest.
(§2) In the present peptide-competition assay conditions of peptide binding were similar to described above. Soluble HLA molecules were used in the concentration of 0.5 μM and biotinylated CLIP was added to all samples in the final concentration of 2 μM. Competitor peptides were added in three different concentrations: 0.25, 5 and 100 μM. Binding reaction was performed in PBS buffer (pH 7.4) for 18 hours at 37° C. […] Briefly, MaxiSorb 96-well plates (Nunc, Denmark) were coated with mouse anti-αβ antibody L243 (purified from ATCC HB-55) by overnight incubation with 50 μl of 10 μg/ml dilution in PBS at 4° C. Non-specific binding to the plastic was blocked by incubation with T-PBS containing 3% of BSA for 2 hours at 37° C. and binding reactions were then “captured” for 2 hours at room temperature. […] The optical density at 405 nm was measured on a microplate reader SUNRISE (Tecan).
For orientation: In an ELISA, binding on a coated surface is turned into a signal by an enzyme label.

Another test deals with DRB1*1101 (Homo sapiens, UniProt P01903+P01911, A100R/A169T/A87E/I96F/K41T/L162R/M171V/P40S/Q125H/Q178H/Q39Y/Q99D/R42S/S66Y/T262R/V115G/W38E). Described as above. In kind it is binding. The arrangement: key: −: no binding/T cell response; +/−: weak binding/T cell response; +: intermediate binding/T cell response; ++: strong binding/T cell response. Particulars: for Binding to DRB1*1101: longer peptides no. 1500-1505, peptide-competition assay. As to the method:
as §1, §2

Test [2] concerns HLA-DRB1*0401-transgenic mice splenocytes. In kind it is in vivo, mouse. Details: key to DRB1*0401 mice total SC (T cell response) / DRB1*0401 mice CD4+ (T cell response): −: no binding/T cell response; +/−: weak binding/T cell response; +: intermediate binding/T cell response; ++: strong binding/T cell response.
Test [3] deals with T1, soluble DRB1*0401 molecules (DR4). In kind it is binding. Details: key: −: no binding/T cell response; +/−: weak binding/T cell response; +: intermediate binding/T cell response; ++: strong binding/T cell response. Particulars: longer peptides no. 1500-1505.
Test [4] has as its target T2, soluble DRB1*0404 molecules (Homo sapiens, UniProt P01903+P01911, A100R/A169T/F76Y/I96L/K127E/L162R/M171V/N62H/P40V/Q125Y/R42H/S133A/S149N/S66Y/V209L/W38E).
T2 construct: Soluble HLA class I A*0201 and HLA class II DRA1*0101/DRB1*0101/Ii, DRA1*0101/DRB1*0401/Ii and DRA1*0101/DRB1*0404/Ii molecules were expressed in SC-2 cells; made in house; host or cells: SC-2 cells
Description: Peptide binding assay, SDS-stability assay. Details: key: −: no binding/T cell response; +/−: weak binding/T cell response; +: intermediate binding/T cell response; ++: strong binding/T cell response.

Test [5] concerns the target T3, soluble DRB1*0101 molecules (Homo sapiens, UniProt P01903+P01911, A100R/D57E/F55L/F60I/F76Y/I96L/L162R/M171V/P40L/Q125E/R42F/V115G/Y59C).
T3 construct: Soluble HLA class I A*0201 and HLA class II DRA1*0101/DRB1*0101/Ii, DRA1*0101/DRB1*0401/Ii and DRA1*0101/DRB1*0404/Ii molecules were expressed in SC-2 cells; made in house; host or cells: SC-2 cells
In words: Peptide binding assay, SDS-stability assay. The arrangement: key: −: no binding/T cell response; +/−: weak binding/T cell response; +: intermediate binding/T cell response; ++: strong binding/T cell response.

Test [6] has as its target T2, soluble DRB1*0404 molecules. Description: Peptide binding assay, SDS-stability assay. The arrangement: key: −: no binding; +/−: weak binding; +: intermediate binding; ++: strong binding. Particulars: individual pp65 15mer.
Test [7] concerns the target T1, soluble DRB1*0401 molecules (DR4). In kind it is binding. Details: key: +++: high binding affinity; ++: moderate binding affinity; +: low binding affinity; −: no binding. Particulars: individual pp65 15mer, SDS-stability assay.
The subject of test [8] is DRB1*0401, DRB1*0101, DRB1*0404, DRB1*0701 and DRB1*1101. In words: Binding to soluble HLA molecules of different allels (promiscuity). Details: species or system human. As to the method:
In peptide binding reactions HLA molecules were used in a concentration of 0.5 μM, and each single peptide was added in 10-fold molar excess (5 μM) if not mentioned differently. […] The reaction was performed in PBS buffer (pH 7.4) at room temperature for 48 hours in the presence of a protease inhibitor cocktail (Roche) and 0.1% octyl-b-D-glucopyranoside (Sigma).
Peptide binding was evaluated in an SDS-stability assay (Gorga et al., 1987): trimeric HLA class II ab-peptide complexes are resistant to SDS and consequently appear as ˜60 kDa band in SDS-PAGE Western blot analysis. Individual HLA class II α and β chains not stabilized by a peptide binding with intermediate to high affinity migrate as ˜35 kDa and ˜30 kDa bands, respectively.
as §1, §2
Some of the identified DRB1*0401 binding peptides, as well as others chosen by prediction algorithms were also tested for binding to soluble HLA molecules of different allels: DRB1*0101, DRB1*0404, DRB1*0701 and DRB1*1101 (Table 3).

The target of test [9] is T1, soluble DRB1*0401 molecules (DR4). Type of test: binding. Details: key: −: no binding; +/−: weak binding; +: intermediate binding; ++: strong binding.
The mark [10] stands for this setting: longer peptides no. 1500-1505, peptide-competition assay.
Setting [11] is: CD4+ fraction of splenocytes, IFN-γ ELISpot.
Where [12] appears, read: IFN-gamma ELISpot, enriched CD4+ fraction of splenocytes of HLA-DR4 transgenic mice vaccinated with the longer peptide, ex vivo re-stimulation.
Where [13] appears, read: IFN-gamma ELISpot, total splenocytes of HLA-DR4 transgenic mice vaccinated with the longer peptide, ex vivo re-stimulation.
Setting [14] is: total splenocytes, ex vivo restimulation, IFN-γ ELISpot.
Where [15] appears, read: individual pp65 15mer, SDS-stability assay.

Read-outs that look alike come from different tables or passages of the source.

For QWKEPDVYYTSAFVFPTKDVALR [Peptide 1501], the “Binding to DRB1 *0401” value in [1] (soluble DRB1*0401 molecules) is recorded as “+”. In addition, the “Binding to DRB1 *0701” value in the test with DRB1*0701 (DRB1*0701) and with DRB1*0701 (setting [10]) was “−” each time. Besides, the “Binding to DRB1 1101” value with DRB1*1101 is “+”. In the test with DRB1*1101, the “Binding to DRB1*1101” value is “+/−”. Besides, the “DRB1*0401 mice CD4+ (T cell response)” value in [2] (setting [11]) and in test [2] (setting [12]) was “+” in each case. The “DRB1*0401 mice total SC (T cell response)” value (“DRB1*0401 mice total SC” for short) in [2] (setting [13]) and in test [2] (setting [14]) was “+” each time. Also, in [3], the “Binding to DRB1*0401” value is “+”. Further, the “Binding to DRB1*0404” value in test [4] (longer peptides no. 1500-1505) and in [4] (soluble DRB1*0404 molecules) was “−” in each case. In addition, the “Binding to DRB1*0101” value in [5] (longer peptides no. 1500-1505) and in [5] (soluble DRB1*0101 molecules) was “++” in each case.
In the case of QGQNLKYQEFFWDANDIYRIF [Peptide 1505], in test [1] (SDS-stability assay), the “Binding to soluble DRB1*0401 molecules (in words)” value is “not so good in binding assay”. Also, the “Binding to DRB1 *0401” value in [1] (soluble DRB1*0401 molecules) was “+”. Further, the “Binding to DRB1 *0701” value with DRB1*0701 (DRB1*0701) and in the test with DRB1*0701 (setting [10]) was “−” each time. Further, the “Binding to DRB1 1101” value in the test with DRB1*1101 is recorded as “−”. For the same sequence, the “Binding to DRB1*1101” value with DRB1*1101 is given as “−”. The “DRB1*0401 mice CD4+ (T cell response)” value in test [2] (setting [11]) and in test [2] (setting [12]) was “++” in each case. For the same sequence, the “DRB1*0401 mice total SC” value in [2] (setting [13]) and in test [2] (setting [14]) was “++” throughout. Further, in [2] (total splenocytes, INF-gamma ELISpot (FIG. 12)), the “Immunogenicity in DRB1*0401-transgenic mice (in words)” value was “highest frequency of T cells”. The “Binding to DRB1*0401” value in test [3] was “+/−”. The “Binding to DRB1*0404” value in test [4] (longer peptides no. 1500-1505) and in [4] (soluble DRB1*0404 molecules) was “−” throughout. Besides, the “Binding to DRB1*0101” value in test [5] (longer peptides no. 1500-1505) and in test [5] (soluble DRB1*0101 molecules) was “−” in each case.
In the case of LARNLVPMVATVQGQ [Peptide 492], the “Binding to DRB1*0404” value in test [6] is on record as “++”. Also, in test [7], the “Binding to DRB1*0401” value is reported as “−”.
In the same order, the values of RNLVPMVATVQGQNL [Peptide 494] are “++” and “−”.
Take TRGRLKAESTVAPEE [Peptide 452]: in test [1] (soluble DRB1*0401 molecules), the “Binding to DRB1 *0401” value was “+”. The “Binding to DRB1 *0701” value in the test with DRB1*0701 (DRB1*0701) was “−”. The “Binding to DRB1 1101” value with DRB1*1101 is recorded as “−”. Moreover, the “DRB1*0401 mice CD4+ (T cell response)” value in [2] (setting [12]) is “++”. In [2] (setting [13]), the “DRB1*0401 mice total SC” value is listed as “+”. Moreover, the “Affinity for several HLA molecules (promiscuity)” value (from here on “Affinity”) in test [8] is “affinity for at least two HLA molecules”. Further, in test [9] (setting [15]), the “Binding to DRB1*0401” value was “+”. The “Binding to DRB1*0404” value in test [6] was “+”; in test [4] (soluble DRB1*0404 molecules), “++”. For the same sequence, in test [5] (soluble DRB1*0101 molecules), the “Binding to DRB1*0101” value is listed as “++”.
Take GPQYSEHPTFTSQYR [Peptide 360]: the “Binding to DRB1 *0401” value in test [1] is recorded as “+/−”. Further, in [2] (mouse, in vivo), the “DRB1*0401 mice CD4+ (T cell response)” value was “++”. In test [2] (mouse, in vivo, sc), the “DRB1*0401 mice total SC” value is on record as “++”. Moreover, the “Affinity” value in test [8] is reported as “affinity for at least two HLA molecules”. Also, the “Binding to DRB1*0401” value in test [9] is “+/−”.
Turning to VSQYTPDSTPCHRGD [Peptide 58], the “Binding to DRB1 *0401” value in test [1] (soluble DRB1*0401 molecules) is “++”. For the same sequence, in the test with DRB1*0701 (DRB1*0701), the “Binding to DRB1 *0701” value is “−”. Besides, in the test with DRB1*1101, the “Binding to DRB1 1101” value is “−”. In [2] (setting [12]), the “DRB1*0401 mice CD4+ (T cell response)” value is recorded as “+”. In test [2] (setting [13]), the “DRB1*0401 mice total SC” value is listed as “++”. The “Affinity” value in test [8] was “affinity for at least two HLA molecules”. Moreover, the “Binding to DRB1*0401” value in test [9] (setting [15]) is on record as “++”. In addition, the “Binding to DRB1*0404” value in [4] (soluble DRB1*0404 molecules) is given as “−”. In test [5] (soluble DRB1*0101 molecules), the “Binding to DRB1*0101” value is recorded as “+”.

Values taken from patent publication US20050221381A1, “Method for isolating ligands” (priority 2002, published 2005).
